This is an account of results in publication PMC7763554, “The Two-Component System CopRS Maintains Subfemtomolar Levels of Free Copper in the Periplasm of Pseudomonas aeruginosa Using a Phosphatase-Based Mechanism” (mSphere, 2020).

The data set concerns the molecule itself. Nature of the data set: SDS-PAGE; 10 ug of purified protein on 8 to 16% gradient SDS-PAGE, Coomassie blue G250; monomer and dimer bands with expected masses of 19 and 38 kDa.

B1: His-tagged CopS(34-151), periplasmic copper binding loop (sensor domain) of Pseudomonas aeruginosa CopS (domain or fragment, UniProt Q9I033 34-151, looked up)
chain: FSRAIDEHFVELDHMAMSAKLAVFRDELRGLGSEQQMRRREAELLRELARHPDLGLRLNGPDGNLWFERLPQPAHPGLPANRELGAPLEPGNDASPRLTVILDISHHQHFLQRMRQLI
notes: CopS, sensor histidine kinase of the two-component system CopRS, Pseudomonas aeruginosa PAO1; periplasmic sensor domain, residues 34-151, amplified from genomic DNA; The His6 tag is joined by a TEV cleavage site, and the tag was not cleaved; The expected monomer mass is printed as 19 kDa, which is more than residues 34-151 plus the tag would give, so the pBAD-topo vector may add residues …
B1: the “stoichiometry N” value worked out at 2.

The term stoichiometry N denotes the number of molecules, sites or subunits per partner or assembly.
